For 1 molecule, Kd results are on record in paper PMC8631008 (FEBS letters, 2021).

The target of this test is T1, Pleiotrophin, wild type (mature, residues 1 to 136) (human, UniProt P21246 33-168).
T1 sequence (looked up): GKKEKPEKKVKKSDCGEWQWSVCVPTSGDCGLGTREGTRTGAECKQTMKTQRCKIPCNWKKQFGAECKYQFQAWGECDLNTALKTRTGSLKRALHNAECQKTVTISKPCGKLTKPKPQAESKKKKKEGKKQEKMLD
The test is described as follows: NMR titration.

As for GGGEDGDTDDDGDDDDDDRGSDGLSIHK [PTPRZ peptide (residues G1414 to K1441 of receptor type protein tyrosine phosphatase ζ)], the Kd – broadly, the concentration at which binding is half-saturated – was ~30 µM.
